Results on 3 molecules are retold here after US20190203248A1 (Bristol-Myers Squibb, published 2019).

One assay deals with rat serum albumin (rat, UniProt P02770 25-608). Description: direct binding ELISA on plate-coated albumin, absorbance 450 nm. The method, then: (§1) For dose response assays, concentrations ranging from 0.1 nM up to 1 μM were used. After washing in PBST to remove unbound Adnectins™, anti-His mAb-HRP conjugate (R&D Systems, MN) diluted 1:2500 in casein block buffer was added to the bound His-tagged Adnectins™ for 1 hour at room temperature. Excess conjugate was removed by washing with PBST and bound Adnectins™ detected using TMB detection reagents (BD Biosciences) according to the manufacturer's instructions.
Chain of rat serum albumin (P02770 25-608 limits assumed): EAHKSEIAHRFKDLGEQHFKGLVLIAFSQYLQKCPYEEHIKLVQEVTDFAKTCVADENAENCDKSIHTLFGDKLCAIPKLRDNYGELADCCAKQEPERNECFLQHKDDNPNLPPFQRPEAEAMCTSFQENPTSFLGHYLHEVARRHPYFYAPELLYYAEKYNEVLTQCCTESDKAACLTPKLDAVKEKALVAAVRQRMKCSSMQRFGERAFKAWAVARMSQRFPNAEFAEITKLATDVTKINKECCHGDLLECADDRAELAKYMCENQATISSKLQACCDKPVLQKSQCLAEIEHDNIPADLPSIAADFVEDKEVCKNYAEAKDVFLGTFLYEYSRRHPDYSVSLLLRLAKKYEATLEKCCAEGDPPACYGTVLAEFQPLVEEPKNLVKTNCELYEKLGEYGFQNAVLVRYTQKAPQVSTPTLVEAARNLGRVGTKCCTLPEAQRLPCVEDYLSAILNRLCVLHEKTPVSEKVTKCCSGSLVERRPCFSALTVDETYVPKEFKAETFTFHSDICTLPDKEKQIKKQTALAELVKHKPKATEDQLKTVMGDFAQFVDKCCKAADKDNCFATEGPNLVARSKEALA
(In an ELISA, binding on a coated surface is turned into a signal by an enzyme label.)

Assay [1] addresses T1, human serum albumin (human, UniProt P02768 25-609).
T1 construct: also called HSA; HuSA
The description is as above. As for the experimental part: as §1

Assay [2] addresses T2, murine serum albumin (mouse, UniProt P07724 25-608).
T2 construct: also called MuSA; mouse serum albumin
The description is as above. The method, then:
as §1

The target of assay [3] is T3, rhesus serum albumin (rhesus, UniProt Q28522 17-600).
T3 construct: also called RhSA
T3 sequence (Q28522 17-600 limits assumed): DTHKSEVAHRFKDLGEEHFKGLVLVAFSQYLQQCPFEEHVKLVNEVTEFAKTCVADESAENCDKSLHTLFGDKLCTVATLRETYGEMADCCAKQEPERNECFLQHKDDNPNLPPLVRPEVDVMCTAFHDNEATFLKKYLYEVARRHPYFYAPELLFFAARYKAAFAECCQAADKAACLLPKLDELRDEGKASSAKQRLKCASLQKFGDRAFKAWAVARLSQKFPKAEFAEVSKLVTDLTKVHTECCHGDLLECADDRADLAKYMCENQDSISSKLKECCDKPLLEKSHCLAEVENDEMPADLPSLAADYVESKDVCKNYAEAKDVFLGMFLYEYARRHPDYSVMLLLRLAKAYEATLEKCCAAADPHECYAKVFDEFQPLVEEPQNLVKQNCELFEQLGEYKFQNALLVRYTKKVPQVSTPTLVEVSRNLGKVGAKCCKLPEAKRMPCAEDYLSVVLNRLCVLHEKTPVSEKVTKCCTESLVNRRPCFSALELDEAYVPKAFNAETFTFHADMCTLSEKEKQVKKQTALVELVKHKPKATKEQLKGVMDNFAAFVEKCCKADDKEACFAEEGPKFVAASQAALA
Description: binding kinetics, HBS-P buffer, 37 C against 25 C.

The target in assay [4] is T1, human serum albumin. Description: binding kinetics, HBS-P buffer, 37 C against 25 C.
Assay [5] concerns the target T3, rhesus serum albumin. The assay is described as follows: binding kinetics, MES buffer, pH 5.5.
The target in assay [6] is T1, human serum albumin. Description: binding kinetics, MES buffer, pH 5.5.
Assay [7] deals with T3, rhesus serum albumin. The assay is described as follows: binding kinetics, HBS-P buffer, 25 C.
Assay [8] has as its target T1, human serum albumin. The assay is described as follows: binding kinetics, HBS-P buffer, 25 C.
Assay [9] addresses T3, rhesus serum albumin. The assay is described as follows: binding kinetics, MES buffer, pH 7.4.
In assay [10] the target is T1, human serum albumin. Description: binding kinetics, MES buffer, pH 7.4.
Assay [11] concerns the target T3, rhesus serum albumin. Description: binding kinetics, HBS-P buffer, 37 C.
The target of assay [12] is T1, human serum albumin. The assay is described as follows: binding kinetics, HBS-P buffer, 37 C.
Assay [13] addresses T1, human serum albumin. The assay is described as follows: binding kinetics, HBS-P buffer, 25 C; 25 C, HBS-P buffer.
Assay [14] deals with T4, human β-klotho (human, UniProt Q86Z14 1-1044). The assay is described as follows: cell-based or functional assay.
Assay [15] has as its target T2, murine serum albumin. The assay is described as follows: SPR (Biacore T100), immobilized MuSA, analyte series 1000 to 62.5 nM, 37 C. As for the experimental part: (§2) Serum albumins were dissolved in PBS buffer (10 mM sodium phosphate, 130 mM sodium chloride, pH 7.1) to a concentration of 10 mg/ml, and subsequently diluted to 8-10 μg/ml in 10 mM sodium acetate pH 5.0 for immobilization. Serum albumins were immobilized on a Series S CM5 sensor chip using standard ethyl(dimethylaminopropyl) carbodiimide (EDC)/N-hydroxysuccinimide (NHS) chemistry in HBS-EP+ running buffer at 25° C., following general manufacturer guidelines. Flow cell 1 was activated with EDC/NHS and blocked with ethanolamine. […] Kinetic experiments were performed in PBS buffer containing 0.05% tween-20 (running buffer) at either 25° C. or 37° C. […] These samples were injected across flow cells 1-4 for 300 s, with a 420 s dissociation time, at flow rates of 30 μl/min or 60 μl/min to check for mass transfer limitation. All surfaces were regenerated with 2 pulses of 10 mM glycine pH 2.0 at 30 μl/min for 30 s. Raw sensograms were “double-referenced” by subtracting flow cell 1 data from flow cell 2, 3 or 4 data, and then subtracting a separate buffer cycle from each sensogram. The double-referenced sensogram data was fitted to a 1:1 Langmuir model using Biacore T100 Evaluation software version 2.0.2 to determine the association rate constant (ka), the dissociation rate constant (kd), and the equilibrium dissociation constant (KD).
In general terms: In SPR one partner is held on a chip, and binding of the other changes the refractive index at the surface.

Assay [16] deals with T5, β-klotho of differentiated 3T3-L1 adipocytes (mouse, UniProt Q99N32 1-1043).
T5 sequence (looked up): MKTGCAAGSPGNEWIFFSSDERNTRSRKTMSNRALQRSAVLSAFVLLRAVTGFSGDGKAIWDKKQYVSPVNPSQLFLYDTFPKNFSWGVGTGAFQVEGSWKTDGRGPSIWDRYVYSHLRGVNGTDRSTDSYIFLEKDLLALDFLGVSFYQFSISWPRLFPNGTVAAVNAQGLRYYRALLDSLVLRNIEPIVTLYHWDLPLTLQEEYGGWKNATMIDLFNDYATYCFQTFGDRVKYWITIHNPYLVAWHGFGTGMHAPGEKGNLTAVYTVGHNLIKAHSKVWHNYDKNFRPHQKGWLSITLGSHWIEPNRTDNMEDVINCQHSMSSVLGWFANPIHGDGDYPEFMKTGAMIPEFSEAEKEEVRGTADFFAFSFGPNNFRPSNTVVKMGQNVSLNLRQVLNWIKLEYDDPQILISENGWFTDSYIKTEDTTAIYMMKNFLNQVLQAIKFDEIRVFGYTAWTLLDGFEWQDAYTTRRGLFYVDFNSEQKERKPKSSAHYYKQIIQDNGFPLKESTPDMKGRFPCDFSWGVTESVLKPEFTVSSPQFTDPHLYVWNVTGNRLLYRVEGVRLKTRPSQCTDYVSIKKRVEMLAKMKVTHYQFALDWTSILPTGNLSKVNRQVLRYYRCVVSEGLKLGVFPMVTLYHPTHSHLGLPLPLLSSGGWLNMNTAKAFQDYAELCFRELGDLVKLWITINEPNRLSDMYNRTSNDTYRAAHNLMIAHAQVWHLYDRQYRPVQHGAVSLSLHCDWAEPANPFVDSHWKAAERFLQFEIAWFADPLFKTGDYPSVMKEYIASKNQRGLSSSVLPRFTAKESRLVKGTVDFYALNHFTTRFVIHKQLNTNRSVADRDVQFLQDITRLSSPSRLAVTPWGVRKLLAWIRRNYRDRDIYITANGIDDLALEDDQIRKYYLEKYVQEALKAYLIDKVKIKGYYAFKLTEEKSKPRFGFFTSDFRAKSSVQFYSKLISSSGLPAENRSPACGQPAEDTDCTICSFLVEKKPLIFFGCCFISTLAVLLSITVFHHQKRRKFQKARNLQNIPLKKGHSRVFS
Description: cell-based or functional assay.

In assay [17] the target is T1, human serum albumin. The assay is described as follows: isothermal titration calorimetry, 37 C, PBS. The method, then:
SABA-FGF21 fusion protein plus buffer was placed in the instrument sample cell at a concentration range of 0.4 to 1.0 mg/mL protein. The matching buffer was placed in the reference cell. Concentrations were determined using extinction coefficients calculated from the protein sequences of the pure proteins. The instrument reaction cell was equilibrated at 37° C. […] The resultant thermogram data was fitted using Origin™ evaluation software package (Microcal Inc.) version 2.0.2 to estimate the stochiometry, enthalpy, and equilibrium disassociation constant (KD) of the protein—protein binding reaction.
Background: ITC needs no label: the signal is the heat of the interaction.

The target of assay [18] is T1, human serum albumin. Description: SPR (Biacore T100), HSA immobilized, 37 C, 30 µl/min. As for the experimental part:
as §2

Assay [19] addresses T6, cynomolgous monkey serum albumin (cynomolgous monkey, UniProt A2V9Z4 25-608).
T6 construct: also called CySA
The assay is described as follows: SPR (Biacore T100), CySA immobilized, 25 C, 30 µl/min. The method, then: as §2

Assay [20] has as its target T1, human serum albumin. The assay is described as follows: SPR (Biacore T100), HSA immobilized, 25 C, 30 µl/min. The method, then:
as §2

Assay [21] has as its target T6, cynomolgous monkey serum albumin. The assay is described as follows: SPR (Biacore T100), CySA immobilized, 37 C, 30 µl/min. The method, then: as §2
The target in assay [22] is T4, human β-klotho. The assay is described as follows: cell-based or functional assay. The source holds these as a separate data set.
Assay [23] deals with T2, murine serum albumin. Description: SPR (Biacore), albumin immobilized on CM5 chip.
Description: In addition, binding to albumin was carried out under various pH conditions ranging from pH 5.5 to pH 7.4.
Assay [24] has as its target T3, rhesus serum albumin. The assay is described as follows: comment in summary table.

T6 sequence (A2V9Z4 25-608 limits assumed): as the sequence (Q28522 17-600 limits assumed) above
T2 sequence (P07724 25-608 limits assumed): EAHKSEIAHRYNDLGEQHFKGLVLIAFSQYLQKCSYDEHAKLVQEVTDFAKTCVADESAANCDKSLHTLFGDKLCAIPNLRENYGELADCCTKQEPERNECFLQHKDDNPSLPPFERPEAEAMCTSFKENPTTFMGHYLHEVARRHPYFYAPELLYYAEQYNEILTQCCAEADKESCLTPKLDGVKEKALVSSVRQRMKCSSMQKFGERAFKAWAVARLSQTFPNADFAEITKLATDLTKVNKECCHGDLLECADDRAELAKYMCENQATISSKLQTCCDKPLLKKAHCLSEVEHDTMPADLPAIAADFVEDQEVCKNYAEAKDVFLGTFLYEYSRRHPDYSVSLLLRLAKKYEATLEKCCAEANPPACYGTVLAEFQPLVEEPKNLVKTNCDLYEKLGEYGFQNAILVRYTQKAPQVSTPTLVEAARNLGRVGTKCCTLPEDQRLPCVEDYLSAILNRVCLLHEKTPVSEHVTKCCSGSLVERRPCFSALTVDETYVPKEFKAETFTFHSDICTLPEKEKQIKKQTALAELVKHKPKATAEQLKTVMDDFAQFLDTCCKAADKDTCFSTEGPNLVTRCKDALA

B1: SABA1.2 (designed binder)
chain: MGVSDVPRDLEVVAATPTSLLISWHSYYEQNSYYRITYGETGGNSPVQEFTVPYSQTTATISGLKPGVDYTITVYAVYGSKYYYPISINYRTEIEDEDEDEDED
notes: also called core 1 10Fn3 comprising an (ED)5 extension
As usually defined, the EC50 (read off the curve) is the concentration that produces a half-maximal response. Broadly, the Kd is the concentration at which binding is half-saturated. A word on the koff: it is the first-order rate constant of dissociation. The term kon denotes the second-order rate constant of association. In the case of B1, the binding result with rat serum albumin and with murine serum albumin [2] was “no binding (tested: 1000 nM)” each time. For the same molecule, the half-maximal effective concentration (EC50 (read off the curve)) with human serum albumin [1] was about 7 nM. Further, the “ratio of affinity at 37 C against 25 C” value in the assay with rhesus serum albumin [3] was 0.5 fold. Moreover, the “fold increase in affinity at 37 C against 25 C” value with human serum albumin [4] was about 2 fold. For the same molecule, the Kd is 359 nM with rhesus serum albumin [5]; 28.6 nM with human serum albumin [6]; 580 nM with rhesus serum albumin [7]; 55.3 nM with human serum albumin [8]; 479 nM in the assay with rhesus serum albumin [9]; 41.9 nM with human serum albumin [10]. Moreover, the results for the dissociation constant (Kd) with rhesus serum albumin [11] and with human serum albumin [12] were 977 nM and 24.1 nM, respectively. The koff with rhesus serum albumin [5] was found to be 0.00272 s⁻¹; with human serum albumin [6], 0.00027 s⁻¹; with rhesus serum albumin [7], 0.00378 s⁻¹; with human serum albumin [8], 0.000443 s⁻¹; with rhesus serum albumin [9] it was 0.00295 s⁻¹; in the assay with human serum albumin [10], 0.000388 s⁻¹. Further, the koff with rhesus serum albumin [11] worked out at 0.0185 s⁻¹; in the assay with human serum albumin [12], 0.000815 s⁻¹. Also, the kon with rhesus serum albumin [5] amounted to 7570 M⁻¹ s⁻¹; with human serum albumin [6], 9440 M⁻¹ s⁻¹; with rhesus serum albumin [7], 6600 M⁻¹ s⁻¹; with rhesus serum albumin [9], 6160 M⁻¹ s⁻¹; in the assay with human serum albumin [10] it was 9260 M⁻¹ s⁻¹; in the assay with rhesus serum albumin [11], 18900 M⁻¹ s⁻¹. The kon with human serum albumin [12] worked out at 33800 M⁻¹ s⁻¹; in the assay with human serum albumin [13] it was 8210 M⁻¹ s⁻¹.

B2: SABA1-FGF21v1 (designed binder)
chain: MGVSDVPRDLEVVAATPTSLLISWHSYYEQNSYYRITYGETGGNSPVQEFTVPYSQTTATISGLKPGVDYTITVYAVYGSKYYYPISINYRTEIEKPSQGSGSGSGSGSGSGSPIPDSSPLLQFGGQVRQRYLYTDDAQQTEAHLEIREDGTVGGAADQSPESLLQLKALKPGVIQILGVKTSRFLCQRPDGALYGSLHFDPEACSFRELLLEDGYNVYQSEAHGLPLHLPGNKSPHRDPAPRGPARFLPLPGLPPALPEPPGILAPQPPDVGSSDPLSMVGPSQGRSPSYAS
notes: Fusion: SABA core 1 with AdNT1 leader and AdCT7 tail, (GS)7 linker, FGF21 core with FNT3 leader and C-terminal S; also called SABA-FGF21v1 fusion; SABA1-FGF21 variant 1
On to B2, for which the “fold shift of potency (EC50) relative to His-tagged FGF21, pERK 1/2 assay” value with human β-klotho [14] is about 15 fold. Moreover, in the assay with murine serum albumin [15], the binding result is on record as “no binding (tested: 1000 nM)”. Also, the “EC50 (nM), pERK assay in 3T3-L1 adipocytes” value in assay [16] came out at 11 nM. Further, the “Fold Activation, pERK assay in 3T3-L1 adipocytes” value in assay [16] is 1.8 fold. In addition, the Kd with human serum albumin [17] worked out at 3.8 nM; with human serum albumin [18], 190 nM; in assay [19], 1200 nM; with human serum albumin [20] it was 98 nM; in [21], 2800 nM. Further, the ΔH with human serum albumin [17] was -15.4 kcal/mol. For the same molecule, the koff with human serum albumin [18] was 0.00111 s⁻¹; in [19], 0.0047 s⁻¹; in the assay with human serum albumin [20] it was 0.000333 s⁻¹; in assay [21] it was 0.0123 s⁻¹. Further, the kon in the assay with human serum albumin [18] turned out to be 5960 M⁻¹ s⁻¹; in assay [19], 3930 M⁻¹ s⁻¹; in the assay with human serum albumin [20], 3380 M⁻¹ s⁻¹; in assay [21], 4440 M⁻¹ s⁻¹. Further, the “EC50 (nM), pERK 1/2 assay in HEK β-Klotho expressing stable cells” value in the assay with human β-klotho [22] was 102 nM.

B3: SABA5.1 (designed binder)
chain: MGVSDVPRDLEVVAATPTSLLISWEDDSYYSRYYRITYGETGGNSPVQEFTVPSDLYTATISGLKPGVDYTITVYAVTYDVTDLIMHEPISINYRTEIDKPSQHHHHHH
notes: His6-tagged Adnectin core 5; same BC, DE and FG loops as SABA4
Regarding B3, the binding result in the assay with murine serum albumin [23] is on record as “no binding”; with rhesus serum albumin [24], “binds”.
